Measured values: publication PMC2844450
Values belong to the molecule of their own block, whether it stands above or below them.

Tests used:
Assay in all cases: enzyme inhibition kinetics
[1] = molecular target: Bovine α-chymotrypsin (bovine)
[2] = molecular target: Factor Xa (activated factor X), plasma protein
[3] = molecular target: fXa-D189S (factor Xa with Asp-189 replaced by Ser)
[4] = molecular target: Factor Xa (activated factor X), plasma protein; remark: listed apart in the source
[5] = molecular target: fXa-D189S (factor Xa with Asp-189 replaced by Ser); remark: listed apart in the source

k2 (second-order association rate constant of inhibition), no heparin [1]: 83 M⁻¹ s⁻¹
k2 (second-order association rate constant of inhibition), no heparin [2]: 3090 M⁻¹ s⁻¹
k2 with heparin [2]: 4.35e+07 M⁻¹ s⁻¹
KD with heparin (ternary encounter complex, first step) [3]: 194 nM
k2 with heparin [3]: 1.02e+06 M⁻¹ s⁻¹
k2 with heparin (k/KD) [3]: 1e+06 M⁻¹ s⁻¹
Molecule: Human wild-type antithrombin (from UniProt P01008 33-464) (natural protein)

k2 (second-order rate constant of inhibition), presence of PZ [2]: 780000
k2 (second-order rate constant of inhibition), presence of PZ [3]: 830000
Molecule: ZPI in complex with protein Z (PZ) (from UniProt Q9UK55 22-444; P22891 41-400)

k2 (second-order rate constant of inhibition), absence of PZ [4]: 1900
k2 (second-order rate constant of inhibition), absence of PZ [5]: 2300
B1: Protein Z-dependent protease inhibitor, wild type (natural protein)
chain: LAPSPQSPETPAPQNQTSRVVQAPKEEEEDEQEASEEKASEEEKAWLMASRQQLAKETSNFGFSLLRKISMRHDGNMVFSPFGMSLAMTGLMLGATGPTETQIKRGLHLQALKPTKPGLLPSLFKGLRETLSRNLELGLTQGSFAFIHKDFDVKETFFNLSKRYFDTECVPMNFRNASQAKRLMNHYINKETRGKIPKLFDEINPETKLILVDYILFKGKWLTPFDPVFTEVDTFHLDKYKTIKVPMMYGAGKFASTFDKNFRCHVLKLPYQGNATMLVVLMEKMGDHLALEDYLTTDLVETWLRNMKTRNMEVFFPKFKLDQKYEMHELLRQMGIRRIFSPFADLSELSATGRNLQVSRVLQRTVIEVDERGTEAVAGILSEITAYSMPPVIKVDRPFHFMIYEETSGMLLFLGRVVNPTLL
